# Results from patent publication US20180217151A1.
# How the values were obtained:
# [1] = biological target: CD45RA antigen on human PBMCs (human) (UniProt P08575); test: flow cytometry, human PBMCs, biotinylated Fab 1 µg/mL, SA-APC, after five washing steps; median of control (background) 0.1; enables reversible labeling: yes
# [2] = biological target: CD45RA antigen on human PBMCs (human) (UniProt P08575); test: flow cytometry, human PBMCs, biotinylated Fab 1 µg/mL, SA-APC, after five washing steps; enables reversible labeling: yes
# [3] = biological target: CD45RA antigen on human PBMCs (human) (UniProt P08575); test: flow cytometry, human PBMCs, biotinylated Fab 1 µg/mL, SA-APC, before washing; median of control (background) 0.1
# [4] = biological target: recombinant CD8 antigen (not stated (the Fab labels human PBMCs)); test: SPR (Biacore), recombinant antigen (extracellular domain) immobilized by amine coupling, Fab as analyte, 1:1 binding mass transfer model
# recombinant CD8 antigen (not stated (the Fab labels human PBMCs)), sequence (P01732 22-182): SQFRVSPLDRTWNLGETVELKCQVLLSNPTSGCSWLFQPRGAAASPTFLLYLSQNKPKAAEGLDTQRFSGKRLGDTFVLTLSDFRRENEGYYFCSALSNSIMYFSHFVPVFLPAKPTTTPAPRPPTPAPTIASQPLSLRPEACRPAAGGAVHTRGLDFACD
# [5] = biological target: CD8 antigen on human PBMCs (human) (UniProt P01732); test: flow cytometry, human PBMCs, biotinylated Fab 1 µg/mL, SA-APC, after five washing steps; median of control (background) 0.1; enables reversible labeling: no
# CD8 antigen on human PBMCs (human), sequence (P01732 22-235): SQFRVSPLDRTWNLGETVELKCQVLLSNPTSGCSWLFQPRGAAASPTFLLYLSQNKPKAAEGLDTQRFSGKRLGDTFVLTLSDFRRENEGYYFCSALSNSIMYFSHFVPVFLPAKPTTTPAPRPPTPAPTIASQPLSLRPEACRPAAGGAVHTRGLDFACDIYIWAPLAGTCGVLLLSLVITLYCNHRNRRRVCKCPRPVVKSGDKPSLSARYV
# [6] = biological target: CD8 antigen on human PBMCs (human) (UniProt P01732); test: flow cytometry, human PBMCs, biotinylated Fab 1 µg/mL, SA-APC, after five washing steps; enables reversible labeling: no
# [7] = biological target: CD8 antigen on human PBMCs (human) (UniProt P01732); test: flow cytometry, human PBMCs, biotinylated Fab 1 µg/mL, SA-APC, before washing; median of control (background) 0.1
# [8] = biological target: CD19 antigen on human PBMCs (human) (UniProt P15391); test: flow cytometry on human PBMCs, SA-APC median after five washing steps; background 0.2
# CD19 antigen on human PBMCs (human), sequence (P15391 20-556): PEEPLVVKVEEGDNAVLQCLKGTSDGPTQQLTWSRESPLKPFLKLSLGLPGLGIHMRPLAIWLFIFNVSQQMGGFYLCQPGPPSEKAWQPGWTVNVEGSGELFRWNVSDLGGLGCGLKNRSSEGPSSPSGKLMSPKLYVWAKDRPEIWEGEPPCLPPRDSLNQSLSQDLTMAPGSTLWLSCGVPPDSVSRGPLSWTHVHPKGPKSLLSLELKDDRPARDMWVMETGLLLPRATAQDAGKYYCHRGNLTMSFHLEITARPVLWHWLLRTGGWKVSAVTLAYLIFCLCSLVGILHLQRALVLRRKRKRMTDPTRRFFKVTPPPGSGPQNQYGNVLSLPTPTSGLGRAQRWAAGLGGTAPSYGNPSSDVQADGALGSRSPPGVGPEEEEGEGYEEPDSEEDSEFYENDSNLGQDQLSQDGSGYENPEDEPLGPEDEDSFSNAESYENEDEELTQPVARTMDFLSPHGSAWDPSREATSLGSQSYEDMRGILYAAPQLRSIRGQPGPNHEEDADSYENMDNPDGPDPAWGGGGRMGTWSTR
# [9] = biological target: recombinant CD19 antigen (not stated (the Fab labels human PBMCs)) (UniProt P15391); test: SPR (Biacore), recombinant antigen (extracellular domain) immobilized by amine coupling, Fab as analyte, 1:1 binding mass transfer model
# recombinant CD19 antigen (not stated (the Fab labels human PBMCs)), sequence (P15391 20-291): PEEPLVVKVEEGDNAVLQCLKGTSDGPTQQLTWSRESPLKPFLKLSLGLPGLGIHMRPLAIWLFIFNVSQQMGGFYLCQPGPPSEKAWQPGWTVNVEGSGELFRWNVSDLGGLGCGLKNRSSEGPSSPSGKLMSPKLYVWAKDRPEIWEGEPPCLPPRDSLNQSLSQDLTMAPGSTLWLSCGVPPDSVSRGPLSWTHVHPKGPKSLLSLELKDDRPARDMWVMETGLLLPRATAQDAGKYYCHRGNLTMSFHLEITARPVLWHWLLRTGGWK
# [10] = biological target: CD19 antigen on human PBMCs (human) (UniProt P15391); test: flow cytometry, human PBMCs, biotinylated Fab 1 µg/mL, SA-APC, before washing; median of control (background) 0.25
# [11] = biological target: CD19 antigen on human PBMCs (human) (UniProt P15391); test: flow cytometry, human PBMCs, biotinylated Fab 1 µg/mL, SA-APC, after five washing steps; enables reversible labeling: yes
binder,measurement,setting,value
"MEM56-LAV rFab (Fab, V domains shown, In the cell assay the Fab was biotinylated with a thiol-reactive reagent (e.g. maleimide-PEO2-biotin) on cysteines of the reduced disulfide bridge; positions not stated.) VH: QVQLQQSGAELAKPGASVKMSCKASGYNFTRYWMHWIKQRPGQGLEWIGYINPNTGHTEYNQKFKDKATLTADKSSSTAYMQLSSLTSEDSAVYYCATYYYGSRRDAGQGTTLTVSS VL: QIVLTQSPAIMSASLGERVTMTCTTSSSVSSSYLHWYQQKPGSSPKLWIYSTSNLASGVPARFSGSGSGTSYSLTISTVEAEDAATYYCHQYHRSPLTFGAGTKLELKR",median value after Fab removal (ii),[1],0.2
same,% median value of the detected label after Fab removal (before = 100%),[2],6.9%
same,median value (i),[3],2.9
"OKT8 pFab (Fab, from another filing, V domains shown) VH: EVQLQQSGAELVKPGASVKLSCTASGFNIKDTYIHFVRQRPEQGLEWIGRIDPANDNTLYASKFQGKATITADTSSNTAYMHLCSLTSGDTAVYYCGRGYGYYVFDHWGQGTTLTVSS VL: DVQINQSPSFLAASPGETITINCRTSRSISQYLAWYQEKPGKTNKLLIYSGSTLQSGIPSRFSGSGSGTDFTLTISGLEPEDFAMYYCQQHNENPLTFGAGTKLELK",Kd,[4],0.62 nM
same,koff,[4],0.0013 s⁻¹
same,kon,[4],2.1e+06 M⁻¹ s⁻¹
same,median value after Fab removal (ii),[5],23
same,% median value of the detected label after Fab removal (before = 100%),[6],51%
same,median value (i),[7],45
"SJ25-C1 pFab (Fab, from another filing, V domains shown) VH: EVKLQQSGAELVRPGSSVKISCKASGYAFSSYWMNWVKQRPGQGLEWIGQIYPGDGDTNYNGKFKGQATLTADKSSSTAYMQLSGLTSEDSAVYFCARKTISSVVDFYFDYWGQGTTVTVSS VL: DIELTQSPKFMSTSVGDRVSVTCKASQNVGTNVAWYQQKPGQSPKPLIYSATYRNSGVPDRFTGSGSGTDFTLTITNVQSKDLADYFCQQYNRYPYTSGGGTKLEI",median of remaining detectable label after removal of Fab,[8],1.2
same,Kd,[9],7 nM
same,koff,[9],0.0031 s⁻¹
same,kon,[9],440000 M⁻¹ s⁻¹
same,median value (i),[10],27
same,% median value of the detected label after Fab removal (before = 100%),[11],4.4%
